Earlier results on three substances are cited in publication PMC4932920.

Usually pKa stands for the negative logarithm of the acid dissociation constant.

Data set [1] deals with T1, His20 (UniProt position 21, GKVGAHAGEYG). Kind of data set: other (H/D exchange of individual histidine residues).
Data set [2] concerns the target T2, His50 (UniProt position 51, HFDLSHGSAQV). Described as above.
Data set [3] addresses T3, His72 (UniProt position 73, TNAVAHVDDMP). The data set is described as above.
Data set [4] addresses T4, His112 (UniProt position 113, VTLAAHLPAEF). The description is as above.
Data set [5] concerns the target T5, His89 (UniProt position 90, SDLHAHKLRVD). The data set is described as above.
The target of data set [6] is T1, His20. Kind of data set: NMR.
In data set [7] the target is T2, His50. As to the kind of experiment: NMR.
In data set [8] the target is T3, His72. As to the kind of experiment: NMR.
In data set [9] the target is T4, His112. Kind of data set: NMR.
Data set [10] concerns the target T5, His89. As to the kind of experiment: NMR.
The target of the next data set is His103 (UniProt position 104, FKLLSHCLLVT). As to the kind of experiment: other (histidine H/D exchange).
The target of data set [11] is T6, His146 (UniProt position 147, LAHKYH-----). Kind of data set: other (H/D exchange of individual histidine residues).
The target in data set [12] is T7, His77 (UniProt position 78, SDGLAHLDNLK). The description is as above.
In data set [13] the target is T8, His97 (UniProt position 98, HCDKLHVDPEN). The data set is described as above.
The target of data set [14] is T9, His143 (UniProt position 144, ANALAHKYH--). The description is as above.
Data set [15] addresses T6, His146. As to the kind of experiment: NMR.
Data set [16] has as its target T7, His77. As to the kind of experiment: NMR.
The target in data set [17] is T8, His97. Kind of data set: NMR.
The target in the next data set is His117 (UniProt position 118, CVLAHHFGKEF). Kind of data set: NMR.
Data set [18] has as its target T9, His143. As to the kind of experiment: NMR.
Where [19] appears, read: carbonmonoxy (CO-liganded) hemoglobin, R state.

With “Hemoglobin A (adult human hemoglobin), alpha chain (Homo sapiens)”, the pKa is 7.0 in the data set with His20 [1] (setting [19]); 7.6 with His20 [1] (deoxy hemoglobin, T state); 7.1 with His50 [2] (setting [19]); 7.2 with His50 [2] (deoxy hemoglobin, T state); 7.1 with His72 [3] (setting [19]); 7.3 in the data set with His72 [3] (deoxy hemoglobin, T state). Moreover, the pKa was 8.1 in the data set with His112 [4] (setting [19]); 8.1 in the data set with His112 [4] (deoxy hemoglobin, T state); 5.6 in the data set with His89 [5] (setting [19]); 7.2 with His89 [5] (deoxy hemoglobin, T state); 7.08 with His20 [6] (setting [19]); 7.02 with His20 [6] (deoxy hemoglobin, T state). For the same substance, the pKa is reported as 6.90 with His50 [7] (setting [19]); 7.14 with His50 [7] (deoxy hemoglobin, T state); 7.27 with His72 [8] (setting [19]); 7.47 with His72 [8] (deoxy hemoglobin, T state); 7.53 with His112 [9] (setting [19]); 7.49 with His112 [9] (deoxy hemoglobin, T state). The pKa was 6.25 with His89 [10] (setting [19]) and 6.80 with His89 [10] (deoxy hemoglobin, T state).
For “Hemoglobin A (adult human hemoglobin), alpha chain residue titrated (Homo sapiens)”, the pKa was 7.1 with His103 (setting [19]) and 7.1 in the data set with His103 (deoxy hemoglobin, T state).
On to “Hemoglobin A (adult human hemoglobin), beta chain (Homo sapiens)”, for which the pKa with His146 [11] (setting [19]) was 7.0; with His146 [11] (deoxy hemoglobin, T state) it was 8.1; in the data set with His77 [12] (setting [19]), 7.8; with His77 [12] (deoxy hemoglobin, T state), 7.8; with His97 [13] (setting [19]) it was 6.4; with His97 [13] (deoxy hemoglobin, T state), 6.4. The pKa in the data set with His143 [14] (setting [19]) was 6.1; in the data set with His143 [14] (deoxy hemoglobin, T state), 5.6; in the data set with His146 [15] (setting [19]), 6.42; with His146 [15] (deoxy hemoglobin, T state) it was 7.93; in the data set with His77 [16] (setting [19]), 7.79; with His77 [16] (deoxy hemoglobin, T state) it was 7.47. For the same substance, the pKa with His97 [17] (setting [19]) is reported as 7.75; with His97 [17] (deoxy hemoglobin, T state), 8.01; in the data set with His117 (setting [19]) it was 6.39; with His117 (deoxy hemoglobin, T state) it was 6.43; with His143 [18] (setting [19]), 5.57; with His143 [18] (deoxy hemoglobin, T state) it was 4.70.
